Assay [1] concerns the target Histone H4K5ac peptide, biotinylated (1–23) (UniProt P62805). The assay can be described thus: pull-down.
Assay [2] has as its target Mononucleosomes, Recombinant Human Biotinylated (human) (UniProt P04908). In words: pull-down.
Assay [3] deals with FLAG-tagged KAP1 ΔRB. In words: co-IP.
Chain of FLAG-tagged KAP1 ΔRB (Q13263 2-835, stated change not applied): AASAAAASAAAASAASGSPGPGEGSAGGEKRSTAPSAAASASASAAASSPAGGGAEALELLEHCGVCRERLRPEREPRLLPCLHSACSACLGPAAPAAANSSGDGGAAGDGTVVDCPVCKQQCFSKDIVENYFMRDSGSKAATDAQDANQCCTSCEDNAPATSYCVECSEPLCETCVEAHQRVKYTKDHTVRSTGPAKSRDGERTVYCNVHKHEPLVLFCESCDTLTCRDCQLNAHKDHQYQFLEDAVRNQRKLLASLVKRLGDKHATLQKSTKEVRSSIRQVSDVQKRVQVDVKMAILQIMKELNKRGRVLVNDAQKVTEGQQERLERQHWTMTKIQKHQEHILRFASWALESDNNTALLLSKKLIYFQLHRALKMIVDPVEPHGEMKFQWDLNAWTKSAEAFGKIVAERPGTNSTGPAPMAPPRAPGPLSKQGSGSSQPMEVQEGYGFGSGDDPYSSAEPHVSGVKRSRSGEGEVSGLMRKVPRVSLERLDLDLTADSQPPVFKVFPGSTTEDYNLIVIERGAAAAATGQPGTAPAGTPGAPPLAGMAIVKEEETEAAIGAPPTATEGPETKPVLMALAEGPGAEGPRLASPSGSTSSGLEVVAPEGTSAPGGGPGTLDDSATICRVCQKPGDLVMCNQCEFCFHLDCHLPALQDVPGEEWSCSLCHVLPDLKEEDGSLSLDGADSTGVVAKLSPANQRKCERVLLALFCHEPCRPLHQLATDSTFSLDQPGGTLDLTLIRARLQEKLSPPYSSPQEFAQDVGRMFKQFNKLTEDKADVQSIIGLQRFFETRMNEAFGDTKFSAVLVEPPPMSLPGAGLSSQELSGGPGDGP

Chain of endogenous SMAD2 (Q15796 whole entry): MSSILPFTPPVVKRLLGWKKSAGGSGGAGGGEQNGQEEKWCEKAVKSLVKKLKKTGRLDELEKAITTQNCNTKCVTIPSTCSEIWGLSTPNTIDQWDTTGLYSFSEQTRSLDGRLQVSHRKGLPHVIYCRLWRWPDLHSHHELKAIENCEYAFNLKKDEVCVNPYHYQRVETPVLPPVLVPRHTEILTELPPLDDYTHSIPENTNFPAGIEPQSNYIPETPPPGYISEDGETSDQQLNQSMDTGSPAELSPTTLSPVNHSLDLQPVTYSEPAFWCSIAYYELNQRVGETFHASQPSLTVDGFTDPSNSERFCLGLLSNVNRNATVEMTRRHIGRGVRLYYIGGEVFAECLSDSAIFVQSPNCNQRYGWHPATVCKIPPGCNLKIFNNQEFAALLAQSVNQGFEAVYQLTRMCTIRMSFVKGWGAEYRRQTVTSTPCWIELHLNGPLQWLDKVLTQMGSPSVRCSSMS

“GST-tagged KAP1 PHD-BD (residues 614–835) (from UniProt Q13263 614-835) (domain or fragment)” displayed a percent lower binding relative to unmodified H4 in assay [1] of 30%.

As to “GST-tagged KAP1 PHD-BD E662/663A (from UniProt Q13263 614-835) (domain or fragment)”, the percent reduction in binding relative to WT KAP1 in assay [2] was 80%.

Take “endogenous SMAD2 (from UniProt Q15796 1-467) (natural protein)”: the percent decrease in binding relative to WT KAP1 in assay [3] was 80%.

The values above are taken from PMC7305985.
